For test [1], the target named is Recombinant human FAM19A5 protein (human, UniProt Q7Z5A7 44-132). Description: ELISA.
The target in the next test is T1, F2-01-BSA (#1) (human, conjugated to BSA).
T1 construct: also called mutant F2 peptide fragment #1
T1 peptide: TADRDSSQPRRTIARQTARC
Description: ELISA, BSA-conjugated mutant F2 peptide coated on plate. On the technique in general: In an ELISA, binding on a coated surface is turned into a signal by an enzyme label.

The next test has as its target T2, F2-02-BSA (#2) (human, conjugated to BSA).
T2 construct: also called mutant F2 peptide fragment #2
T2 peptide: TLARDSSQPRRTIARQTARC
Described as above.

In the next test the target is T3, F2-04-BSA (#4) (human, conjugated to BSA).
T3 construct: also called mutant F2 peptide fragment #4
T3 peptide: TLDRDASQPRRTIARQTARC
The description is as above.

The target in another test is T4, F2-05-BSA (#5) (human, conjugated to BSA).
T4 construct: also called mutant F2 peptide fragment #5
T4 peptide: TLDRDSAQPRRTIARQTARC
Described as above.

The target in another test is T5, F2-06-BSA (#6) (human, conjugated to BSA).
T5 construct: also called mutant F2 peptide fragment #6
T5 peptide: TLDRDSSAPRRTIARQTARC
The description is as above.

The target of another test is T6, F2-07-BSA (#7) (human, conjugated to BSA).
T6 construct: also called mutant F2 peptide fragment #7
T6 peptide: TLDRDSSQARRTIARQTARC
Described as above.

For another test, the target named is T7, F2-08-BSA (#8) (human, conjugated to BSA).
T7 construct: also called mutant F2 peptide fragment #8
T7 peptide: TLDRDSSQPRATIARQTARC
The test is described as above.

The target in another test is T8, F2-09-BSA (#9) (human, conjugated to BSA).
T8 construct: also called mutant F2 peptide fragment #9
T8 peptide: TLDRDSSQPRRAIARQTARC
Described as above.

The next test has as its target T9, F2-10-BSA (#10) (human, conjugated to BSA).
T9 construct: also called mutant F2 peptide fragment #10
T9 peptide: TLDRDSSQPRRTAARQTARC
The description is as above.

The target of another test is T10, F2-11-BSA (#11) (human, conjugated to BSA).
T10 construct: also called mutant F2 peptide fragment #11
T10 peptide: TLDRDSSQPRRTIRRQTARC
The test is described as above.

Another test has as its target T11, F2-12-BSA (#12) (human, conjugated to BSA).
T11 construct: also called mutant F2 peptide fragment #12
T11 peptide: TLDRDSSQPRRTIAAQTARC
The description is as above.

The target of a further test is T12, F2-13-BSA (#13) (human, conjugated to BSA).
T12 construct: also called mutant F2 peptide fragment #13
T12 peptide: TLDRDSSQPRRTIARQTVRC
The description is as above.

Test [2] concerns the target T13, FAM19A5 epitope fragment F2, conjugated to BSA (human, conjugated to BSA).
T13 peptide: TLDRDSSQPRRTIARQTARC
The experiment in a line: ELISA, BSA-conjugated peptide coated on plate. The method, then:
Overlapping peptide fragments (F1-F6, See FIG. 1) of the human FAM19A5 protein were synthesized and conjugated to BSA. Binding of the different anti-FAM19A5 antibodies to the BSA-conjugated peptide fragments F1-F6 was determined by ELISA assay. Briefly, FAM19A5 fragment F1-F6 (diluted to 1 μg/mL in 50 mM carbonate buffer (Biosesang) or to 20 μg/mL for high concentration analysis) were used to coat the wells of 96-well immuno plates (Thermo Scientific) (100 μL/well) overnight at 4° C. and then subsequently washed twice in 1×PBS. The plates were then blocked with the blocking buffer (100 μL/well) for 1 hour at room temperature. During the 1-hour incubation, the relevant anti-FAM19A5 antibodies were diluted to 1 μg/mL (or 20 μg/mL for high concentration analysis) in the diluent buffer. Once the plates were washed (2×using 1×PBS), the diluted anti-FAM19A5 antibodies were added to the appropriate wells, and the plates were incubated at room temperature for 1 hour. The plates were subsequently washed for a total of five times using the washing buffer. […] The absorption value of each of the wells was detected at 492 nm using a 96-well microplate reader (Molecular Device).

The next test addresses T14, F2-03-BSA (#3) (human, conjugated to BSA).
T14 construct: also called mutant F2 peptide fragment #3
T14 peptide: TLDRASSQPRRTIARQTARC
Description: ELISA, BSA-conjugated mutant F2 peptide coated on plate.

Recombinant human FAM19A5 protein, sequence (Q7Z5A7 other isoform, or with tags, fused parts or gaps): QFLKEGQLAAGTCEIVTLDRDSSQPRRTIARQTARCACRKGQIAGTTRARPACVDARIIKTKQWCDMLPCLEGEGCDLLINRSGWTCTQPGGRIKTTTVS

B1: Anti-FAM19A5 antibody 1-28 (antibody, V domains shown)
VH: AVTLDESGGGLQTPGGALSLVCKASGFDFSDYGMGWVRQAPGKGLEWVAAIRSDGSNPSYGSAVKGRATISKDNGRSTVRLQLNNLRAEDTATYYCAKDGNGYCALDAYRSGGYSCGVYPGSIDAWGHGTEVIVSS
VL: ALTQPSSVSANLEGTVEITCSGSGYGYGWYQQKSPGSAPVTVIYQNDKRPSDIPSRFSGSKSGSTGTLTITGVQVEDEAVYYCGSEDSSTLAGIFGAGTTLTVL
notes: also called Anti-FAM19A5 ("1-28")
As usually defined, the Kd is the concentration at which binding is half-saturated. For the molecule B1, in [1], the Kd is 0.17 nM. Moreover, the binding result with F2-01-BSA (#1), in the test with F2-02-BSA (#2), in the test with F2-04-BSA (#4), with F2-05-BSA (#5), in the test with F2-06-BSA (#6) and in the test with F2-07-BSA (#7) was “binds” in each case. The binding result with F2-08-BSA (#8), with F2-09-BSA (#9), in the test with F2-10-BSA (#10), in the test with F2-11-BSA (#11), with F2-12-BSA (#12) and in the test with F2-13-BSA (#13) was “binds” each time.

B2: Anti-FAM19A5 antibody 1-65 (antibody, V domains shown)
VH: AVTLDESGGGLQTPGGALSLVCKASGFTFSSYQMGWVRQAPGKGLEWVGVINKSGSDTSYGSAVKGRATISRDNGQSTVRLQLNNLRAEDTGTYFCAKGSASYITAATIDAWGHGTEVIVSS
VL: ALTQPSSVSANPGETVKITCSGGGSSGYGYGWYQQKSPSSAPLTVIYWNDKRPSDIPSRFSGSKSGSTHTLTITGVQAEDEAVYFCGNDDYSSDSGYVGVFGAGTTLTVL
notes: VL = 39 to 42)
For the molecule B2, the Kd in test [1] stood at 0.1 nM.

B3: Anti-FAM19A5 antibody 3-2 (antibody, V domains shown)
VH: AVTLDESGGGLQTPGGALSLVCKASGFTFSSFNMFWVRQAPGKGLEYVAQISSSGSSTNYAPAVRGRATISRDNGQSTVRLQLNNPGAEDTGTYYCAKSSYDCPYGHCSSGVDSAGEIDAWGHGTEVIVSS
VL: ALTQPSSVSANPGETVKITCSGGGSYAGSYYYGWYQQKAPGSAPVTLIYESNKRPSDIPSRFSGSTSGSTATLTITGVQADDEAIYYCGSWDSSNGGIFGAGTTLTVL
notes: The text reports the results for '3-2' without separating them, so one molecule is written; Only the variable domains are tied to the name; also called h3-2; m3-2
B3: the Kd in test [1] stood at 0.12 nM. The binding result (in test [2]; with F2-01-BSA (#1); in the test with F2-02-BSA (#2); with F2-03-BSA (#3); in the test with F2-04-BSA (#4); with F2-05-BSA (#5)) was “binds” in each case. Further, the binding result in the test with F2-06-BSA (#6), with F2-07-BSA (#7), in the test with F2-08-BSA (#8), in the test with F2-09-BSA (#9), with F2-10-BSA (#10) and with F2-11-BSA (#11) was “binds” in each case. In addition, the binding result with F2-12-BSA (#12) and with F2-13-BSA (#13) was “binds” each time.

B4: Anti-FAM19A5 antibody 2-13 (antibody, V domains shown)
VH: AVTLDESGGGLQTPGGALSLVCKASGFTFSSHGMFWVRQTPGKGLEYVAEITNDGSGTNYGSAVKGRATISRDNGQSTVRLQLNNLRAEDTGTYFCARSTYECPGGFSCWGDTGQIDAWGHGTEVIVSS
VL: ALTQPSSVSANPGETVKITCSGGSYSYGWFQQKSPGSALVTVIYWDDERPSDIPSRFSGALSGSTNTLTITGVQADDEAVYFCGTEDISGTAGVFGAGTTLTVL
notes: Chicken-derived scFv clone converted to a full antibody; also called Anti-FAM19A5 ("2-13")
Regarding B4, the Kd in test [1] is around 2.77 nM.

The values above are taken from patent US20230287096A1 (published 2023).
